Results reported in article PMC5145889, “Differential CCR7 Targeting in Dendritic Cells by Three Naturally Occurring CC-Chemokines” (Frontiers in Immunology, 2016).

T1: CCR7 Y312A (human, UniProt P32248 25-378, Y312A)
T1 sequence (looked up): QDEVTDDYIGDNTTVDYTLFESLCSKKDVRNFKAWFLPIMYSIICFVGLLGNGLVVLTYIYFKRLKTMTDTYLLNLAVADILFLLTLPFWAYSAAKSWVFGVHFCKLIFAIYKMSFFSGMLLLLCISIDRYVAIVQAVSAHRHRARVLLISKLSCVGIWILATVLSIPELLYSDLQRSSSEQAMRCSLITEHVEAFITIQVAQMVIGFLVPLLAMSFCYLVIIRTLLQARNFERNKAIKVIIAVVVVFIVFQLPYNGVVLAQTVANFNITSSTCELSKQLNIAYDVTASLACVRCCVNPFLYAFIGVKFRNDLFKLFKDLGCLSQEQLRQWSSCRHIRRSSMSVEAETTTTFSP

T2: CCR7 fused with the ProLink (PK) 1-tag (human, UniProt P32248 25-378)
T2 sequence (looked up): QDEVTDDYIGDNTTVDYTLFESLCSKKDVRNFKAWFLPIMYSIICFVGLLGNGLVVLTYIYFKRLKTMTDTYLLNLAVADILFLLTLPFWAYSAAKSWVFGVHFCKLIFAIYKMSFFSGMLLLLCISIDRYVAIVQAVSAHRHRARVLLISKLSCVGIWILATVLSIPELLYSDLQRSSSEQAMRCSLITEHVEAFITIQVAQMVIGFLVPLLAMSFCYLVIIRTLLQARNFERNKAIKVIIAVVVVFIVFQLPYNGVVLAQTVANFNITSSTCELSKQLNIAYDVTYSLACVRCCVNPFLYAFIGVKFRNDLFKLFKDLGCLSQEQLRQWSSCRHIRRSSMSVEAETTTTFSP

T3: human CCR7, wild type, untagged (human, UniProt P32248 25-378)
T3 sequence (looked up): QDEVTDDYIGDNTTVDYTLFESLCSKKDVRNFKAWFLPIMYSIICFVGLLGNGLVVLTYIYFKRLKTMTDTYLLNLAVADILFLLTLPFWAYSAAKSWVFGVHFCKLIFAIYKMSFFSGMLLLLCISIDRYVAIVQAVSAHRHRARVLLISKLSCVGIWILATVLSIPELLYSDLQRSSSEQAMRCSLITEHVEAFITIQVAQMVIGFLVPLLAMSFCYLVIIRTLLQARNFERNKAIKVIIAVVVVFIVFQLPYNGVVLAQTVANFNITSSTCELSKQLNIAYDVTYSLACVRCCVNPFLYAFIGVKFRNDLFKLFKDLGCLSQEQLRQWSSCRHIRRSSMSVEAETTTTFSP

T4: CCR7 E193A (human, UniProt P32248 25-378, E193A)
T4 sequence (looked up): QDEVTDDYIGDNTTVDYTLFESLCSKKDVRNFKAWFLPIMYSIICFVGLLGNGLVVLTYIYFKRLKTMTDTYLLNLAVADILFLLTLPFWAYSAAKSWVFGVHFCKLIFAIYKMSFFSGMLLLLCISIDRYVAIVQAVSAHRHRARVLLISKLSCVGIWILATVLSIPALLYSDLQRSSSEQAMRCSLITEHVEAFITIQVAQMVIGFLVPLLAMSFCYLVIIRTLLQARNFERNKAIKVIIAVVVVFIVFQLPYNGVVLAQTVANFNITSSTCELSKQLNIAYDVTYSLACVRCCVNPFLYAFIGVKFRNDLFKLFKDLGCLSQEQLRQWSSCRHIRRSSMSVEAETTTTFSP

T5: CCR7 K137A (human, UniProt P32248 25-378, K137A)
T5 sequence (looked up): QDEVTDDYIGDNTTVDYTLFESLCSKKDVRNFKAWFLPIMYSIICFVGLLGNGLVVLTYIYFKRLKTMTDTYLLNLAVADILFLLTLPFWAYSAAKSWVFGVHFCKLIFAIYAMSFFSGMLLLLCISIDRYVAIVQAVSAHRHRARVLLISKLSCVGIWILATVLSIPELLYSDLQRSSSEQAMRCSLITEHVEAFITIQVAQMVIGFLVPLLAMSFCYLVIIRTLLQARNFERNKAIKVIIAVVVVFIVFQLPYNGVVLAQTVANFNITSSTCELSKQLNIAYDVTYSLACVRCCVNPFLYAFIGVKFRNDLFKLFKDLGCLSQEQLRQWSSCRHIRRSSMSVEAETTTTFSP

T6: CCR7 F133A (human, UniProt P32248 25-378, F133A)
T6 sequence (looked up): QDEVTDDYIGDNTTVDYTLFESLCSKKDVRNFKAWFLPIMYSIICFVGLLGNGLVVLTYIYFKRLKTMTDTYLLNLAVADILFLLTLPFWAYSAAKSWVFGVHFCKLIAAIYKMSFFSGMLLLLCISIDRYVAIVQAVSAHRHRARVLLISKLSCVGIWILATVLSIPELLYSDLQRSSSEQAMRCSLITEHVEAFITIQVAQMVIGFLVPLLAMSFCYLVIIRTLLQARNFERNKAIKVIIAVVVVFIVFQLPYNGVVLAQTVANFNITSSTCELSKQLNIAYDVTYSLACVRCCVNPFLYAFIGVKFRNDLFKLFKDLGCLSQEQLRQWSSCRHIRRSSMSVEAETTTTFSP

B1: human chemokine CCL21 (full-length CCL21) (ligand, UniProt O00585 24-134, looked up)
chain: SDGGAQDCCLKYSQRKIPAKVVRSYRKQEPSLGCSIPAILFLPRKRSQAELCADPKELWVQQLMQHLDKTPSPQKPAQGCRKDRGASKTGKKGKGSKGCKRTERSQTPKGP
B2: tailless-CCL21 (ligand, human)
chain: SDGGAQDCCLKYSQRKIPAKVVRSYRKQEPSLGCSIPAILFLPRKRSQAELCADPKELWVQQLMQHLDKTPSPQKPAQG

Legend:
[1] = target: human CCR7, wild type, untagged (human) (UniProt P32248)
CCR7 Y312A (human) = CCR7 Y312A (human) (UniProt P32248)
[2] = target: human CCR7, wild type, untagged (human) (UniProt P32248); remark: listed apart in the source
[3] = target: human CCR7, wild type, untagged (human) (UniProt P32248); remark: listed apart in the source
[4] = target: CCR7 fused with the ProLink (PK) 1-tag (human) (UniProt P32248)
CCR7 Y312A = target: T1, CCR7 Y312A; assay: cell-based or functional assay
[5] = target: T2, CCR7 fused with the ProLink (PK) 1-tag; assay: cell-based or functional assay
[6] = target: T3, human CCR7, wild type, untagged; assay: cell-based or functional assay
CCR7 E193A = target: T4, CCR7 E193A; assay: cell-based or functional assay
CCR7 K137A = target: T5, CCR7 K137A; assay: cell-based or functional assay
[7] = target: T3, human CCR7, wild type, untagged; assay: cell-based or functional assay; remark: listed apart in the source
CCR7 F133A = target: T6, CCR7 F133A; assay: cell-based or functional assay

Row | Molecule | EC50 of PI-turnover in HEK293 cells (mutagenesis series, wild type) [1] | EC50 of PI-turnover in HEK293 cells (CCR7 Y312A (human)) | EC50 of PI-turnover (Gαi signalling read through Gqi4myr) in HEK293 cells transfected with CCR7 [2] | EC50 of β-arrestin 2-dependent CCR7 internalization (U2OS cells, 3 h) [3] | EC50 of β-arrestin 2 recruitment to CCR7 (PathHunter, U2OS cells) [4] | EC50 of PI-turnover in HEK293 cells (CCR7 Y312A) | EC50 of β-arrestin 2 recruitment to CCR7 (PathHunter, U2OS cells) [5] | EC50 of PI-turnover (Gαi signalling read through Gqi4myr) in HEK293 cells transfected with CCR7 [6] | EC50 of PI-turnover in HEK293 cells (mutagenesis series, wild type) [6] | EC50 of β-arrestin 2-dependent CCR7 internalization (U2OS cells, 3 h) [6] | percentage activation of CCR7 (G-protein signaling) relative to CCL19 (CCR7 E193A) | percentage activation of CCR7 (G-protein signaling) relative to CCL19 (CCR7 K137A) | percentage activation of CCR7 (G-protein signaling) relative to CCL19 [7] | percentage activation of CCR7 (G-protein signaling) relative to CCL19 (CCR7 F133A)
1 | human chemokine CCL19 (from UniProt Q99731 22-98) (ligand) | 5.4 nM | 7.8 nM | 5 nM | 4.1 nM | 15 nM | – | – | – | – | – | – | – | – | –
2 | B1 | – | – | – | – | – | ~77 nM | ~263 nM | ~50 nM | ~156 nM | ~152 nM | 19.3 % relative to CCL19 | 16 % relative to CCL19 | 57 % relative to CCL19 | 28.7 % relative to CCL19
3 | B2 | – | – | – | – | – | – | – | ~142 nM | – | – | 17.5 % relative to CCL19 | 16.7 % relative to CCL19 | 42.7 % relative to CCL19 | 27.1 % relative to CCL19
